Drawing on paper PMC2132596, this text covers percent of cells adhering and fold more coated fusion protein needed than of E-cadherin–Fc for two substances.

Assay [1] concerns the target purified human IgG1 (human). In words: cell adhesion assay.
The target in assay [2] is human P-cadherin–Fc fusion protein (human) (UniProt P22223). In words: cell adhesion assay.
Chain of human P-cadherin–Fc fusion protein (human) (P22223 108-654): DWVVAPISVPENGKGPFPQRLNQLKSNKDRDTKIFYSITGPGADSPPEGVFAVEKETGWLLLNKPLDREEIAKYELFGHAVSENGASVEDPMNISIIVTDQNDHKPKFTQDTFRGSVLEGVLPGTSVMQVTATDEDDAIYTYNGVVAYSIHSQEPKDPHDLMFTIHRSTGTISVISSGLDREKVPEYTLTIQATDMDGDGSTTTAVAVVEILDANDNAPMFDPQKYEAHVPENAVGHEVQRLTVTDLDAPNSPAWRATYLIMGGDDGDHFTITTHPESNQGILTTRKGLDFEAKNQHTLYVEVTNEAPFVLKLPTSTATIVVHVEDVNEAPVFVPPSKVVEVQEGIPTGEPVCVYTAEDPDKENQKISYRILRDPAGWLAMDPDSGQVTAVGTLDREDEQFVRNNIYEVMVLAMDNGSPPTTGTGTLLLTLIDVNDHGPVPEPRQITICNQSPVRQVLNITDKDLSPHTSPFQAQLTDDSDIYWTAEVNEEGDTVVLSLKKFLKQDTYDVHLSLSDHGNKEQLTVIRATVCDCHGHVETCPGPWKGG

The substance “αEβ7 on JY′ cells transfected with full-length human αE (JY′-αE) (from UniProt P38570 19-1179; P26010 20-798) (complex)” came in with a percent of cells adhering in assay [1] below 3%.
Regarding “integrin αEβ7 of cultured human intestinal intraepithelial lymphocytes (from UniProt P38570 19-1179; P26010 20-798) (complex)”, in assay [2], the fold more coated fusion protein needed than of E-cadherin–Fc is above 100 fold and the percent of cells adhering at 500 ng/well was found to be 40%.
